One block for each molecule: values may come before it.
Key:
[1] = target: Salmo salar RidA-1 (Salmo salar); assay: native MS; ESI mass spectra of 0.5 mg/mL protein in 10 mM ammonium formate; SsRidA-2 also after ultrafiltration on 30 kDa-cutoff membranes (retentate)
[2] = target: Salmo salar RidA-1 (Salmo salar); assay: SEC-MALS; 200 uL of 1 mg/mL protein on Superdex 75 10/300 GL in physiological saline (0.9% w/v NaCl), 0.5 mL/min, mobile phase pH 5.8; MALS and DLS detection
[3] = target: Salmo salar RidA-1 (Salmo salar); assay: crystal structure; sitting drop at 20 °C, protein 7.5 mg/mL in 154 mM NaCl; SsRidA-1 from 0.2 M NaCl, 0.1 M sodium acetate pH 5.0, 20% PEG 6000; SsRidA-2 from 0.1 M ammonium sulfate, 0.1 M sodium acetate, 25% PEG 4000; data at 100 K
[4] = target: Salmo salar RidA-2 (Salmo salar); assay: native MS; ESI mass spectra of 0.5 mg/mL protein in 10 mM ammonium formate; SsRidA-2 also after ultrafiltration on 30 kDa-cutoff membranes (retentate)
[5] = target: Salmo salar RidA-2 (Salmo salar); assay: SEC-MALS; 200 uL of 1 mg/mL protein on Superdex 75 10/300 GL in physiological saline (0.9% w/v NaCl), 0.5 mL/min, mobile phase pH 5.8; MALS and DLS detection
[6] = target: Salmo salar RidA-2 (Salmo salar); assay: crystal structure; sitting drop at 20 °C, protein 7.5 mg/mL in 154 mM NaCl; SsRidA-1 from 0.2 M NaCl, 0.1 M sodium acetate pH 5.0, 20% PEG 6000; SsRidA-2 from 0.1 M ammonium sulfate, 0.1 M sodium acetate, 25% PEG 4000; data at 100 K
[7] = target: the molecule itself; assay: SEC-MALS; 200 uL of 1 mg/mL protein on Superdex 75 10/300 GL in physiological saline (0.9% w/v NaCl), 0.5 mL/min, mobile phase pH 5.8; MALS and DLS detection

- stoichiometry N [1]: 3
- stoichiometry N [2]: 3
- stoichiometry N [3]: 3
Molecule: Salmo salar RidA-1 (enzyme)

- stoichiometry N [4]: 3
- stoichiometry N [5]: 3
- stoichiometry N [6]: 3
Molecule: Salmo salar RidA-2 (enzyme)

B1: goat RidA (UK114) (enzyme, goat (Capra hircus))
chain: SSLVRRIISTAKAPAAIGPYSQAVLVDRTIYISGQLGMDPASGQLVPGGVVEEAKQALTNIGEILKAAGCDFTNVVKATVLLADINDFSAVNDVYKQYFQSSFPARAAYQVAALPKGGRVEIEAIAVQGPLTTASL
notes: also called ChRidA; goat UK114
- stoichiometry N [7]: 3

Reference: paper PMC7311433, “Two novel fish paralogs provide insights into the Rid family of imine deaminases active in pre-empting enamine/imine metabolic damage” (Scientific Reports, 2020)
